Data: the PETadex activity labels (doi:10.1038/s41467-023-40233-w)

Substrate: pcPET (post-consumer)
Assay: Proxy for plastic degradation [Released monomer concentration (HPLC/LC-MS) (TPA+MHET+BHET)]
Conditions: pH 9

Protein | Proxy for plastic degradation (40 °C, 24 h) | Proxy for plastic degradation (60 °C, 6 h)
unnamed (protein) MLSFLRSTGRPERRRASLPALLLFTAALVASGLTAAPAAQAADNPYQRGPDPTNASIEAATGPFAVGTQPIVGASGFGGGQIYYPTDTSQTYGAVVIVPGFISVWAQLNWLGPRLASQGFVVIGIETSVITDLPDPRGDQALAALDWATTRSPVASRIDRTRLAAAGWSMGGGGLRRAALQRPSLKAIVGMAPWNGERNWSAVTVPTLFFGGSSDAVASPNDHAKPFYNSITRAEKDYIELRNADHFFPTSANTTMAKYFISWLKRWVDNDTRYRQFLCPGPSTGLFAPVSASMNTCPF | 270 µM | 
unnamed (protein) MLSFLRSTGRPERRRASLPALLLFTAALVASGLTAAPAAQAADNPYQRGPDPTNASIEAATGPFAVGTQPIVGASGFGGGQIYYPTDTSQTYGAVVIVPGFISVWAQLNWLGPRLASQGFVVIGIETSVITDLPDPRGDQALAALDWATTRSPVASRIDRTRLAAAGWSMGGGGLRRAALQRPSLKAIVGMAPWNGERNWSAVTVPTLFFGGSSDAVASPNDHAKPFYNSITRAEKDYIELRNADHFFPTSANTTMAKYFISWLKRWVDNDTRYTQFLCPGPSTGLFAPVSASMNTCPF |  | 60 µM
unnamed (protein) MLSFLRSTGRPERRRASLPALLLFTAALVASGLTAAPAAQAADNPYQRGPDPTNASIEAATGPFAVGTQPIVGASGFGGGQIYYPTDTSQTYGAVVIVPGFISVWAQLNWLGPRLASQGFVVIGIETSVITDLPDPRGDQALAALDWATTRSPVRSRIDRTRLAAAGWSMGGGGLRRAALQRPSLKAIVGMAPWNGERNWSAVTVPTLFFGGSSDAVASPNDHAKPFYNSITRAEKDYIELRNADHFFPTSANTTMAKYFISWLKRWVDNDTRYTQFLCPGPSTGLFAPVSASMNTCPF | 870 µM | 
